From the supplement of paper PMC9170038

System: MS2 coat protein
Experiment: apparent KD of MS2 coat protein; higher = weaker reporter binding
Settings: Eterna round: R107
Summary of the method: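 Designed RNA switches were transcribed on-chip from Illumina sequencing clusters. SNAP-549-labelled MS2 coat protein was titrated onto them in twofold steps from 0.7 or 1.5 nM to 3 µM in 100 mM Tris-HCl pH 7.5, 80 mM KCl, 4 mM MgCl2, either without or with constant ligand. Apparent KD reflects the per-design median of normalised cluster binding-curve fits.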

[1] = input ligand: theophylline 20 uM
[2] = input ligand: theophylline 2 mM
[3] = input ligand: tryptophan 2.4 mM

Row | Sequence | apparent KD of MS2 coat protein (input ligand: arginine 13.2 mM) [nM] | apparent KD of MS2 coat protein (input ligand: none) [nM] | apparent KD of MS2 coat protein [1] [nM] | apparent KD of MS2 coat protein [2] [nM] | apparent KD of MS2 coat protein [3] [nM]
1 | ACGUAAUGCAGAAGGAGCGUCUUAUGUAUACAUGAGGAUCACCCAUGUAAUAUGUGGUUGAGACAGGUAGGUCGCUGAAGUACGA [JR_SSArginiB_Sub009] | 46.9 | 86 | 94.1 | 78.4 | 58.7
2 | ACGAUGCGACAUGAGGAUCACCCAUGUGAUACCAGCCUGGAAACAGGCCCUUGGCAGCACAAAUACUCCAGAAACGCAUCGAAUA [MAT - Exclusion Theophlline A - Mod of Eli - D3] | 96.3 | – | 356 | – | 348
3 | CCGGUUAGGACGGCCGCCACUGUGGCUACGGUACAUGAGGAUCACCCAUGUUUGUGGUUGAUCUACAGGACCGGGUCCUGACACG [Eronri] | 124 | 247 | 1210 | 806 | 247
4 | UUACAUGAGGAUCACCCAUGUCAUAAUGAUACCAGAUAGUUGAUGAUCCCUUGGCAGCAUAGUACCUAGACAUGUGAGUCAUAGG [Ab] | 116 | – | 130 | – | 76.8
5 | CGAUACGUAACUGAUACCAGUGUACUGACAUGAGGAUCACCCAUGUUGGGUUUUGUUGUACACCCUUGGCAGCAGAAUCGUAUCG [AstrosExyTheB#18] | 52.1 | – | 77.5 | – | 59.9
6 | AAUCUGUCGGGUGAUACCAGCCUCGGCACAUCUCGUGCCGAACAUGAGGAUCACCCAUGUGGCCCUUGGCAGCACAUGACAAAUC [Usreerso] | 289 | – | 801 | – | 520
7 | ACGAUAGGACACGAGGAUCACCCGUGUGAUACCAGCCUGGAAACAGGCCCUUGGCAGCACAAAUACUCCAAUAACCUAUCGAAUA [TheoAX 10 #MicroSwitchBubble #AlternativeMS2] | 56.5 | 96.3 | 183 | 569 | 106
8 | GACGGGCCUAUUGAUACCAGACCUAGUGACAACAUGAGGAUCACCCAUGUGACGGCAAAAGUCCCUUGGCAGCAAGUAGAAAUAA [theeternabot_sameState_MS2_Theo_B_41] | 14 | – | 16.6 | – | 15.4
9 | GGACAUGCAGGAAGGAGCGACACAGCAGAAACUGCAAAUCCUCCACACGAGGAUCACCCGUGUCAGGUAGGUCGCCUGCAUGUCG [ArgXB 14 #Zipper #MS2Left #StaticStem #Blueprint] | 76.7 | 89.5 | 99.1 | 126 | 80.2
10 | UUAUUUAACGGAAGGAGCGCGGAAAUUAAGGUGGGUAAACAUGAGGAUCACCCAUGUAAUCCGCAGGUAGGUCGCCGAUAUUUAU [#24 Exclusion - Arginine B] | 86.1 | 156 | 136 | 119 | 112
11 | AGCGACAUGCAUGAUACCAGCUACAUGAGGAUCACCCAUGUACGUCAGUAAUGACUGUGUAGCCCUUGGCAGCAUAGAGCAUGUU [Exclusion - Theophylline B (Freestyle 15)] | 15.7 | – | 29.3 | – | 16.5
12 | AGGUGGCGCGGAAGGAGCGAGUUUGCCUAUUACAUGAGGAUCACCCAUGUGGGUAAUGGGACUCAGGUAGGUCGCCGUUGUCGCU [Same State Arginine B GF 27] | 35.6 | 47.9 | 91.5 | 68.8 | 61.5
13 | GGGUACAUCGCGGCCGCCACUCAUGUAAAUGCAUGAGGAUCACCCAUGCCGAUGGAGACAUCGGAGAGGACCGGGUGAUGUACCG | 41.8 | 45.8 | 68.7 | 71.1 | 33.6
14 | GGACUCGUCACGGCCGCCACUGCGGUGGUGUGACAUGAGGAUCACCCAUGUUGUCAUGCGGCCCUUAGGACCGGGUGUCGCGUCC [#1 Exclusion - Tryptophan B Attempt #25 (HarryS)] | 49.7 | – | 100 | 93.8 | –
15 | GCGGACAUGAGGAUCACCCAUGUAAAUCCUCGAGGACCGGUACGGCCGCCACUCGAACGAGUGGCGCGCGCGCGCGCGCGCGCGC [aAa] | 25.3 | 40.5 | 119 | 78.9 | 45.2
16 | AAUAACAUGAGGAUCACCCAUGUAAAAGAUACCAGAGUGAUGAUCCUCCCUUGGCAGCUUAAUAACGCUAUCGGAAACGAUAGCG [Mat - Same State Theophlline A - Mod of Eli - D8] | 37.7 | – | 170 | – | 72
17 | UGGGUACAUGAGGAUCACCCAUGUACUGAAGGAGCGAGAAUUAUCUCAGGUAGGUCGCAGACAUGAGGAUCACCCAUGUAGUGGG [Exclusion Arginine A GF 13] | 15 | 18 | 22.7 | 20 | 17.7
18 | UAAUGCAGGUCGGCCGCCACUACAAACAUGAGGAUCACCCAUGUAGUUACUGGGUGAAGUGGCAGUAGGACCGGGACCUGCAUAA [Trp-Ms2-T'-M'-T''_Design1] | 102 | – | 602 | 1040 | –
19 | GAUGAUAUUGCAGAUACCAGACACAUGAGGAUCACCCAUGUCGCUGGGUUACUGGGUCGUGUCCCUUGGCAGCUGCGAUAUCAUC [Belize] | 33.6 | – | 89.2 | – | 42.1

Row | Sequence | apparent KD of MS2 coat protein (input ligand: arginine 13.2 mM) [nM] | apparent KD of MS2 coat protein (input ligand: none) [nM] | apparent KD of MS2 coat protein [1] [nM] | apparent KD of MS2 coat protein [2] [nM] | apparent KD of MS2 coat protein [3] [nM]
20 | AAUAAGAUCCUCAUGUGAGUCGUACCAUAACGAGGACCGGUACGGCCGCCACUCGAACAUGAGGAUCACCCAUGUAGGUACGACA [M'-T'-T-MS2-T'' - Design 8] | 49.8 | – | 320 | 882 | –
21 | GCUGUGAAGUCGGCCGCCACUGGUUAGUUUUACCUCAUGUAACAUGAGGAUCACCCAUGUAAUUUCAGGACCGGGACAACAGCAA [JR_ExcTryptoB_Sub017] | 135 | – | 588 | 853 | –
22 | UAAACUACACAUGAGGAUCACCCAUGUGGCCGAGGACCGGUACGGCCGCCACUCGUGUGUUAAUAAAAGAACUGCAAAGUUCCUU [Aquen] | 63.1 | – | 416 | 504 | –
23 | AGCAACAAGUCGGCCGCCACUCAUUUAACAUGAGGAUCACCCAUGUGAAUAACAUGGUUGUAAUAGAGGACCGGGACAGUUGCAU [JR_SSTryptoB_Sub016] | 205 | – | 283 | 401 | –
24 | AACAUGGGAUUAAAAUAAAUAAUAACUGAUACCAGACUAUAUAAUGUCCCUUGGCAGCAGAUACAUGAGGAUCACCCAUGUAUUA [JR_Nu_ExcTheophyA_Sub023] | 12.2 | – | 14.9 | – | 12.8
25 | UUUACAUGAGGAUCACCCAUGUGCCAUGAUACCAGACAUGAAAAUGUCCCUUGGCAGCAUGAAUGAUUCAUAGGAUAAUUAUGGG [Obrany] | 69.4 | – | 146 | – | 80.9
26 | ACGACGCAUAGUGAUACCAGUACAACAUGAGGAUCACCCAUGUCACAUAUGUUGUAAUAGUGCCCUUGGCAGCACUAUGCGUCAG [SSTheo B #3] | 94.4 | – | 106 | – | 125
27 | UAUAUAUAACAUGAGGAUCACCCAUGUAAACGAGGACCGGUACGGCCGCCACUCGGCCGGCAAGGGAGAGGACGGGAAACCGUCG [ETA NP+V+V2 #26] | 12.1 | 12.8 | 23.1 | 23 | 24.4
28 | GGUUACUCUACGGCCGCCACUGAUUAAUUAUAAUCCUGUACAUAAACAUGAGGAUCACCCAUGUACAGGACCGGGUAGUGUAACC [Tryptophan B 10] | 32.3 | – | 46.2 | 36.3 | –
29 | CGAAAGCAGUGAUCCAGCUUUCGCCUGGAAGGAGCGAGCGAAAGCUCAGGUAGGUCGCCAGAAACAUGAGGAUCACCCAUGUAAU [(A)''-(M)'-(A)'-(Arg1)-(Arg2)-(M1)-(M2)_Design8] | 36.6 | 65.4 | 82 | 145 | 75.5
30 | AUGCAUAGCGGAAGGAGCGCAAUAGAAUGACAUGAGGAUCACCCAUGUGUGUGAUGUGGGUUGCAGGUAGGUCGCCGAGUGGCAU [#11 Exclusion - Arginine B] | 77.6 | 80.9 | 95.9 | 127 | 59.1
31 | ACAUUUAACUGAAGGAGCGUGAUAUGUACAUGAGGAUCACCCAUGUCUUUCAUGUGAUUUUCACAGGUAGGUCGCAGACUAAUGA [JR_ExcArginiB_Sub003] | 11.8 | 11.5 | 14.2 | 13 | 11.6
32 | CUUACACAUGAGGAUCACCCAUGUCAUGAUACCAGCCAAUACACUGGCCCUUGGCAGCAUCUCAGCCUCAGCUACAUUGACUGAC [theeternabot_sameState_MS2_Theo_A_2] | 18.9 | – | 28.2 | – | 17.8
33 | GACAUUAUCUGAAGGAGCGAGGUAAAUAGGGAUGAGCAUACAUGAGGAUCACCCAUGUGGCCUCAGGUAGGUCGCAGAUGAGAUU [Exclusion Arginine B GF26] | 41.1 | 253 | 212 | 453 | 256
34 | UUAAUCAUUGAUGAAAACAUUAAUGCAGAAGGAGCGUGAUAAAACACAGGUAGGUCGCUGAAGGGAACAUGAGGAUCACCCAUGU [AstrosSSArgA#16] | 27.3 | 28.1 | 36.5 | 33.6 | 30.8
35 | ACAUGAGGAUCACCCAUGUAGUAGUCAGAAGGAGCGUGGAAUAACACAGGUAGGUCGCUGAUGUUUGGUUAAAUGUAAUCGUGUA [#30 Same State - Arginine A] | 19.6 | 17.4 | 27.6 | 18.3 | 17.8
36 | CGUGGUGGGACGGAUACCAGCCACCGCGGCAACGCAACAUGAGGAUCACCCAUGUUGGGUGGCCCUUGGCAGCUGUCCUGCGACG [#1 Same State - Theophylline B Attempt #27 (HarryS)] | 11.5 | 11.7 | 11.6 | 11.7 | 10.1
37 | CGGUAGGUAGGUCGAUAUCUACCCGUAGAAGGAGCGUAAGAAAAUACAGGUAGGUCGCUACGGAACAUGAGCAUCAGCCAUGUCC [SSArg A #12-Alt Ms2] | 13.9 | 11 | 20.6 | 12.1 | 12.6
